# From publication PMC10531876, “PLK1 Regulates MicroRNA Biogenesis through Drosha Phosphorylation” (International Journal of Molecular Sciences, 2023)
# T1: Flag-Drosha S300E,S302D (phospho-mimic) (UniProt Q9NRR4 1-1374, S300E | S302D)
# T1 construct: Drosha with S300E and S302D, Flag-tagged as m1; also called phospho-mimic Drosha; source: HEK293T, transfected, in lysate
# T1 sequence (looked up): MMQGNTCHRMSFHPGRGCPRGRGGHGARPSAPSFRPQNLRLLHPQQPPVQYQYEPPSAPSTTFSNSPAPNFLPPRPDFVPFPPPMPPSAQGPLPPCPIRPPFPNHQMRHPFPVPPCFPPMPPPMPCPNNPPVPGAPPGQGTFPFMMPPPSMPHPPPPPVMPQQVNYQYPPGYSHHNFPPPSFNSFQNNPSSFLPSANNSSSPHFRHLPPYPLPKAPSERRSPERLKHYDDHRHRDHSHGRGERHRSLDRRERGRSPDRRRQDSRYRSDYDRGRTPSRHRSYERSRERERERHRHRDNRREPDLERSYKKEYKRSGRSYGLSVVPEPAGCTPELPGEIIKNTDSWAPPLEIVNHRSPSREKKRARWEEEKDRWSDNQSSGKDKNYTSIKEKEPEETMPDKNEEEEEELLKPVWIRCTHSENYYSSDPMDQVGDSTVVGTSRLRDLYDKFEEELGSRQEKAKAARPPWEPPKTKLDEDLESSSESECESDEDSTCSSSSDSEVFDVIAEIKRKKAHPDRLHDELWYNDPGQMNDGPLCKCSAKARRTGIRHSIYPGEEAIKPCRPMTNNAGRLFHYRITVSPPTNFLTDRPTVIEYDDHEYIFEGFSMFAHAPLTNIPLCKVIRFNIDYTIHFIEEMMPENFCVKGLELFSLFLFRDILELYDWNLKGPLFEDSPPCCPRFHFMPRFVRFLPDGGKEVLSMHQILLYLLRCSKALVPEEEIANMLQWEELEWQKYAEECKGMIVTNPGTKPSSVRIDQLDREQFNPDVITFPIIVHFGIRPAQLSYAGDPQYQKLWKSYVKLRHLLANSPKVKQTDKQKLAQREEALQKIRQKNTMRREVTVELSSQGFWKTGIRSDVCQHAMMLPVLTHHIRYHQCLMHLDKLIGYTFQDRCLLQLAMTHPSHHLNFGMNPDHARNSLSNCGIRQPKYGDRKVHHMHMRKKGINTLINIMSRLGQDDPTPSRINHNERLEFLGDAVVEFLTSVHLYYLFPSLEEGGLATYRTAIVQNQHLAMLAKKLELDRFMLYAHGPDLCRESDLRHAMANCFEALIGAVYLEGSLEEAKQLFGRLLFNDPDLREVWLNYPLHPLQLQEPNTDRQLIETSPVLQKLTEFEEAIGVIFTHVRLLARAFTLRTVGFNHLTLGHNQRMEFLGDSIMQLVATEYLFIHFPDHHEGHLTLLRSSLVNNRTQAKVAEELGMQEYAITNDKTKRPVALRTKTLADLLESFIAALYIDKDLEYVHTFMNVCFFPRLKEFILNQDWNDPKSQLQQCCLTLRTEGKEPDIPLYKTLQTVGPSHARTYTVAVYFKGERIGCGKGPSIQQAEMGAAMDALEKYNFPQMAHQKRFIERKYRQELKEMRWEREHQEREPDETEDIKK
# Target: T1, Flag-Drosha S300E,S302D (phospho-mimic)
# Assay: co-IP; Flag immunoprecipitates of HEK293T cells transfected with Flag-Drosha (WT or mutants), blotted for PLK1 or DGCR8; cells treated with DMSO, RO-520 (100 nM) or NMS (500 nM) for 16 h, or samples with RNase A; mutant panel 72 h after transfection
# Conditions: partners not purified
binder,measurement,value
"DGCR8 (natural protein, human (endogenous in HEK293T), UniProt Q8WYQ5 1-773, looked up, DGCR8, Microprocessor cofactor of Drosha, detected by blot in Flag immunoprecipitates of HEK293T cells; source: HEK293T lysate (cells transfected with Flag-Drosha only)) METDESPSPLPCGPAGEAVMESRARPFQALPREQSPPPPLQTSSGAEVMDVGSGGDGQSELPAEDPFNFYGASLLSKGSFSKGRLLIDPNCSGHSPRTARHAPAVRKFSPDLKLLKDVKISVSFTESCRSKDRKVLYTGAERDVRAECGLLLSPVSGDVHACPFGGSVGDGVGIGGESADKKDEENELDQEKRVEYAVLDELEDFTDNLELDEEGAGGFTAKAIVQRDRVDEEALNFPYEDDFDNDVDALLEEGLCAPKKRRTEEKYGGDSDHPSDGETSVQPMMTKIKTVLKSRGRPPTEPLPDGWIMTFHNSGVPVYLHRESRVVTWSRPYFLGTGSIRKHDPPLSSIPCLHYKKMKDNEEREQSSDLTPSGDVSPVKPLSRSAELEFPLDEPDSMGADPGPPDEKDPLGAEAAPGALGQVKAKVEVCKDESVDLEEFRSYLEKRFDFEQVTVKKFRTWAERRQFNREMKRKQAESERPILPANQKLITLSVQDAPTKKEFVINPNGKSEVCILHEYMQRVLKVRPVYNFFECENPSEPFGASVTIDGVTYGSGTASSKKLAKNKAARATLEILIPDFVKQTSEEKPKDSEELEYFNHISIEDSRVYELTSKAGLLSPYQILHECLKRNHGMGDTSIKFEVVPGKNQKSEYVMACGKHTVRGWCKNKRVGKQLASQKILQLLHPHVKNWGSLLRMYGRESSKMVKQETSDKSVIELQQYAKKNKPNLHILSKLQEEMKRLAEEREETRKKPKMSIVASAQPGGEPLCTVDV",fold change of co-precipitated DGCR8 against WT Drosha,2.5 fold
